Assay results as given in article PMC6446880.

T1: IRF3 K359A (IRF3 (K359A)-his) (UniProt P70671 1-419, K359A)
T1 sequence: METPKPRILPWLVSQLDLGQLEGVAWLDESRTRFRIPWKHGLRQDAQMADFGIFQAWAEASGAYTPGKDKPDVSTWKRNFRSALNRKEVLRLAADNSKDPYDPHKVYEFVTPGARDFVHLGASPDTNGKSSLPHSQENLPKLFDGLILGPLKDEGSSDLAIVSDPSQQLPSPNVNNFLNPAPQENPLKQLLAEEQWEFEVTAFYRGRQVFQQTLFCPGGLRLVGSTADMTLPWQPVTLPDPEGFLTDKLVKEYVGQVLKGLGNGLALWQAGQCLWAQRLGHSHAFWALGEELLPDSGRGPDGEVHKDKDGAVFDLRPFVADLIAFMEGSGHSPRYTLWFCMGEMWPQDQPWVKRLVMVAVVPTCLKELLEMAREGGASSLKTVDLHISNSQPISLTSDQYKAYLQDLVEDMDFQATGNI

B1: IFN-α (Ifna4) promoter probe (dsDNA)
DNA 1: GAAAGTGAAAAGAGAATTGGAAAGC
DNA 2: GCTTTCCAATTCTCTTTTCACTTTC
B2: IFN-β (Ifnb) promoter probe (dsDNA)
DNA 1: GAAAACTGAAAGGGAGAACTGAAAGT
DNA 2: ACTTTCAGTTCTCCCTTTCAGTTTTC

Molecular target: T1, IRF3 K359A (IRF3 (K359A)-his)
Experiment: EMSA

Binder | binding result
B1 | binds
B2 | binds
